Measurements taken from patent US8173598B2, “Myeloid protein activation of anti-inflammatory and anti-hypoxic pathway” (The Board of Trustees of the University of Illinois, priority 2008, dated 2012).
No end group written: not given here. *: point of attachment. Palmitoyl = CCCCCCCCCCCCCCCC(=O)*

Tests used:
[1] = tested on: Human peripheral neutrophils; assay: PAR-4 activating peptide enhanced neutrophil oxidative metabolism (DCFH-DA oxidation); format: cell-based; details: P4pal-i1 with PAR-4 activating peptide (FIG. 6A)
Excerpt: (§1) Human peripheral neutrophils were isolated from heparinized blood donated by healthy volunteers according to a protocol approved by the University of Illinois Institutional Review Board. The cells were isolated using a Histopaque™ gradient (Sigma) according to the manufacturer's instructions. Cell viability and identity was confirmed by trypan blue staining. Live cells and neutrophils represented at least 95% of isolated leukocytes.
The method for the measurement of oxidative activation of neutrophils was based on the ROS-dependent oxidation of DCFH-DA to DCF and was adapted from Ciapetti et al. DCFH-DA crosses the cell membrane and is hydrolyzed by nonspecific esterases to nonfluorescent DCFH. […] “Edge effects” (a higher fluorescence in edge wells) were avoided by using only center wells. […] Just before a baseline reading 100,000 neutrophils in 50 μl PBS were placed in each well. 96-well plates were incubated at 37° C. and 5% CO2 and were read at baseline (immediately after cell addition to the plates) and at indicated time points in a Spectra Max Gemini XS fluorescent plate reader. The excitation wavelength was 485 and the reading was done at 530 nm. Wells with no DCFH-DA were used to measure background fluorescence which was subtracted from each reading. Controls with no cells were also analyzed and display no increased fluorescence over time. […]

[2] = tested on: Human peripheral neutrophils; assay: Spontaneous oxidative activation of neutrophils (DCFH-DA oxidation); format: cell-based
Excerpt: as §1
(§2) The method for the measurement of oxidative activation of neutrophils was based on the ROS-dependent oxidation of DCFH-DA to DCF and was adapted from Ciapetti et al. DCFH-DA crosses the cell membrane and is hydrolyzed by nonspecific esterases to nonfluorescent DCFH. Its oxidation by ROS results in the generation of highly fluorescent DCF [30]. DCFH-DA is therefore a widely accepted probe for the measurement of an overall index of oxidative activity. DCFH-DA was purchased from Calbiochem (Madison, Wis.). The assays were run in clear bottom black 96-well plate. “Edge effects” (a higher fluorescence in edge wells) were avoided by using only center wells. Briefly, 50 μl of Dulbecco's Phosphate Buffered Saline (DPBS) containing DCFH-DA was added to each well with the final concentration of […]. S100 proteins or PKC inhibitors were diluted in the wells. Just before a baseline reading 100,000 neutrophils in 50 μl PBS were placed in each well. 96-well plates were incubated at 37° C. and 5% CO2 and were read at baseline (immediately after cell addition to the plates) and at indicated time points in a Spectra Max Gemini XS fluorescent plate reader. The excitation wavelength was 485 and the reading was done at 530 nm. Wells with no DCFH-DA were used to measure background fluorescence which was subtracted from each reading. Controls with no cells were also analyzed and display no increased fluorescence over time. All assays were conducted in triplicate or quadruplicate wells.
In order to avoid differences between donors, experimental procedures and plate to plate variation, all experimental conditions and statistical analysis were run within one plate inclusive of all positive and negative controls. Single sample t-tests were calculated to test the S100A8, S100A9 and combined proteins in comparison to the control wells with alpha set to ≦0.05 to determine statistical significance. Comparisons between the S100A8, S100A9 and combined proteins were calculated with two sample t-tests using SPSS (SPSS Inc., Chicago, Ill.) with alpha set to ≦0.05 to determine statistical relevance.

[3] = tested on: excisional cutaneous wounds; assay: Wound closure in the SKH-1 restraint stress model; format: in vivo, SKH-1 mice
Excerpt: This protocol was approved by the Committee on Animal Research at the University of Illinois at Chicago. Virus antibody-free, female SKH-1 mice, 5-6 weeks of age, were purchased from Charles River, Inc (Wilmington, Mass.). The animals were allowed to acclimate to the animal facility for at least one week prior to experimental procedures.
(§3) The restraint stress protocol is based on established procedures (Gajendrareddy et al., 2005; Mercado et al., 2002; Padgett et al., 1998). Restraint was initiated 3 days before wounding. Restraint stress (RST) in this model consists of confinement of mice within loosely fitting, well-ventilated 50 ml conical tubes for a period of 12-14 hours during their active nocturnal cycle. Animals were subjected to restraint for an additional five cycles on the day of wounding and for four days thereafter, then stress was discontinued.
For excisional wounds, mice were anesthetized with a single 0.25 ml intraperitoneal injection of Ketaset solution (Aveco, Fort Dodge, Iowa) at a concentration of 7.8 mg/ml, plus Rompum (Haver-Lockhart, Shawnee, Kans.) at 0.44 mg/ml. Each animal received two standardized circular cutaneous wounds with 3.5 mm punch (Miltex Instrument Company), placed just behind the shoulder blades with a biopsy punch.
(§4) For treatment of wounds, S100A8 and mutant ala^42S100A8 were produced, cleaved and purified from a GST fusion construct as previously described (Tugizov et al., 2005) (Sroussi et al., 2006). The endotoxin levels in the recombinant protein preparations were below 1 ng/μg of proteins as measured by the Limulus amoebocyte lysate assay (LAL) (Associates of Cape Cod, Falmouth, Mass.). Solutions of S100 proteins at a concentration of 1 μg/ml were used for those experiments. Introduction of S100A8 protein or control saline vehicle were conducted through local injection intradermally of 25 μl solution in the tissue surrounding the wounds with the help of Micro-Fine IV syringes 28G1/2 (Becton Dickinson, Franklin Lakes, N.J.). Careful wound manipulation ensured no direct disruption of the wound site. An additional 10 μl solution was applied directly to the wounds.
Measurement of Wound Sizes was done as follows. Beginning on the day of wounding (day 0), each animal's wounds were photographed daily until day 5 post-wounding. Photographs of the wound were obtained with a standard-sized dot placed next to the site. Digitized photographs were analyzed using photoplanimetry (Marucha et al., 1998). An investigator blinded to treatment group and day of photograph measured wound size. Wound size was expressed as the percentage of the wound area determined on every post-wounding day, compared with the original wound area.

[4] = tested on: thrombin receptors; assay: Calcium flux and thrombin-S100A8/A9 cross-desensitization in Chem-3 cells; format: cell-based; details: each alone
Method: (§5) Screening for S100A8 and S100A9 activity on thrombin receptors including thrombin receptor desensitization were conducted with calcium flux assays in Chem 3 and PAR-4 expressing Chem.-1 cells by Millipore's GPCRProfiler(R) Service (Millipore, St. Charles, Mo.; see website Millipore website on the internet).

[5] = tested on: neutrophils; details: cited from earlier work
[6] = tested on: Human peripheral neutrophils; assay: PMA induced activation of neutrophil oxidative metabolism (DCFH-DA oxidation); format: cell-based; details: dose dependent
Excerpt: as §1, §2

[7] = tested on: Human peripheral neutrophils; assay: LPS stimulated neutrophil oxidative metabolism (DCFH-DA oxidation); format: cell-based; details: 2.5 to 10 μg/ml of protein; LPS 10 μg/ml
Excerpt: as §1, §2

[8] = molecular target: T1, PAR-4 (Homo sapiens, UniProt Q96RI0); assay: Calcium flux and desensitization to thrombin in PAR-4 expressing Chem.-1 cells; format: cell-based
T1 construct: host or cells: Chem-1 cells
T1 sequence (Q96RI0 18-385): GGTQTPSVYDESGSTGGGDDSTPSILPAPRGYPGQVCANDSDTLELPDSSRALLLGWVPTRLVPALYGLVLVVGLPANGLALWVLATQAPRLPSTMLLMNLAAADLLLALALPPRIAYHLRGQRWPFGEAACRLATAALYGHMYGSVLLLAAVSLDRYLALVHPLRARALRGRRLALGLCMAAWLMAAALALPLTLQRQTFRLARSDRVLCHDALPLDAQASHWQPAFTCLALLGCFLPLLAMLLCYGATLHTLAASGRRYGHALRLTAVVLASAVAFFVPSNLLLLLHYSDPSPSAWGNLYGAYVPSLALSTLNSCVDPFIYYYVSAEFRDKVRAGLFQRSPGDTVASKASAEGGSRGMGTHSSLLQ
Method: as §5

[9] = tested on: wound bacterial load; format: in vivo, SKH-1 mice
Method: as §3, §4
Wound biopsies were performed to evaluate bacterial clearance. Mice were anesthetized as described above. The dorsal area was cleaned with Betadine and a uniform, full-thickness wound located on the dorsum just below the shoulder blades was created with a sterile 6.0-mm punch (Miltex Instrument Company).
Wound infection was assessed with measurement of bacterial load at the wound site by methods adapted from Rojas (Rojas et al., 2002). At day 1 and day 5 post-wounding, mice were euthanized; wounds were collected with a 6-mm punch (see above) and homogenized in 1 ml of sterile PBS. Homogenates were serially diluted (1:10); plated in duplicate on BHI agar, and incubated for 15 h. Bacterial colonies were counted.

[10] = tested on: recruitment of neutrophils; details: rat air-pouch; Sroussi et al., 2006; cited from earlier work
[11] = restraint stressed (RST) mice, single local treatment immediately after wounding

C15H31CONH-ATGAPRLPST (Palmitoyl-ATGAPRLPST) [P4pal-i1, reference compound]
PAR-4 activating peptide enhancement of oxidative metabolism [1]: blocked the ability of the PAR-4 activating peptide to enhance oxidative metabolism | spontaneous oxidative metabolic activity ([2]; 2.5 μM P4pal-i1): spontaneous oxidative metabolic activity was reduced | effect on S100A8, S100A9 and calprotectin inhibition of spontaneous oxidative metabolic activity ([2]; P4pal-i1 with S100 proteins (FIG. 6B)): blocked the ability of S100A8, S100A9 and calprotectin (S100A8/A9 in combination) to inhibit the spontaneous oxidative metabolic activity of neutrophils

S100A8: recombinant human S100A8 calcium binding protein, expressed in Escherichia coli as GST fusion, GST tag cleaved
rate of spontaneous oxidation of the DCFH-DA probe ([2]; 2.5 to 10 μg/ml of protein, followed over time, p <0.001 to <0.05): reduced the rate at which spontaneous oxidation of the DCFH-DA probe occurred in a dose dependent manner | oxidative activation of neutrophils ([2]; 5, 2.5 and 1.25 μg/ml, p<0.05): inhibited the oxidative activation of neutrophils | oxidative metabolism (fluorescence emission of DCFH-DA probe) ([2]; 1 h time point, all concentrations tested, P<0.05 compared to control): significantly inhibited oxidative metabolism at all concentrations tested | oxidative activation of neutrophils, protein first boiled ([2]; same concentrations (5, 2.5, 1.25 μg/ml), protein boiled for 5 minutes): did not significantly affect the neutrophils | wound closure rate in stressed animals [3, 11]: partial acceleration in wound closure rate in stressed animals | calcium flux in Chem-3 cells [4]: trigger calcium flux in Chem-3 cells in a dose dependent manner | neutrophil chemotaxis toward bacterial products (formylated peptides) ([5]; in-vitro, Sroussi et al., 2006, 2007): inhibit neutrophil chemotaxis toward bacterial products | PMA activation of neutrophils [6]: produced a dose dependent inhibition of PMA activation of neutrophils | LPS stimulation of neutrophil oxidative activity [7]: strongly inhibited LPS stimulation of neutrophil oxidative activity | calcium flux in PAR-4 expressing cells ([8]; data not shown): activated calcium flux in those cells | desensitization of PAR-4 expressing cells to thrombin activation ([8]; previous treatment with different concentrations, then 10 nM thrombin): dose dependently desensitized PAR-4 expressing cells to thrombin activation

B1: ala^42S100A8: oxidation-resistant analog of S100A8 engineered using site-directed mutagenesis (cysteine 42 replaced with alanine) (protein, UniProt P05109 1-93, looked up, variant C42A)
Protein S100-A8: MLTELEKALNSIIDVYHKYSLIKGNFHAVYRDDLKKLLETEAPQYIRKKGADVWFKELDINTDGAVNFQEFLILVIKMGVAAHKKSHEESHKE
wound bacterial loads, stressed mice, day 1 ([9]; RST mice, day 1, vs saline treated stressed mice): statistically significant reduction in bacterial loads | wound bacterial loads, stressed mice, day 5 ([9]; RST mice, day 5, vs saline treated stressed mice): statistically significant reduction in bacterial loads | wound bacterial counts, FWD mice, day 1 ([9]; mouse, in vivo): statistically significant increase in wound bacterial counts | wound bacterial counts, FWD mice, day 5 ([9]; mouse, in vivo): bacterial counts had reverted to control values | recruitment of neutrophils stimulated by bacterial endotoxins [10]: inhibits the recruitment of neutrophils stimulated by bacterial endotoxins | wound closure in non-stressed animals with daily treatment ([3]; FWD mice, daily treatment, vs daily saline): significant delay in wound closure starting at day 4 post-wounding | wound closure rates in non-stressed control animals ([3]; FWD mice, single application): normal wound closure rates | wound closure rates with daily injections ([3]; daily administration to the wounds): did not result in the amelioration of wound closure rates | wound closure rate in stressed animals [3, 11]: closure rate similar to the closure rates observed in the non stressed food and water deprived (FWD) group | average wound size in stressed animals vs saline ([3]; restraint stressed (RST) mice, single local treatment immediately after wounding, from day 2 on): significantly smaller than the average wound size in stressed animals treated with saline | chemo-repulsive activity under oxidative conditions ([5]; conditions that inhibit wild type S100A8): retains its chemo-repulsive activity under oxidative conditions
